Measurements: US20150110806A1 (INSTITUT NATIONAL DE LA SANTE ET DE LA RECHERCHE MEDICALE, published 2015)

Molecular target: T1, MBP (UniProt P0AEX9 27-392 = MBP)
T1 construct: Control without pilin
Assay: co-precipitation of CD147-Fc with MBP immobilised on staphylococci, immunoblot

B1: recombinant human CD147-Fc chimera (Fc fusion)
chain: THGASGAAGTVFTTVEDLGSKILLTCSLNDSATEVTGHRWLKGGVVLKEDALPGQKTEFKVDSDDQWGEYSCVFLPEPMGTANIQLHGPPRVKAVKSSEHINEGETAMLVCKSESVPPVTDWAWYKITDSEDKALMNGSESRFFVSSSQGRSELHIENLNMEADPGQYRCNGTSSKGSDQAIITLRVRSH
notes: Bought from R&D Systems; comprises the Ig domains of CD147 fused to the Fc domain of human IgG1, produced as a disulfide-linked homodimer; also called soluble chimeric CD147-Fc; recombinant soluble form of the extracellular domain of CD147; not shown: Fc domain of human IgG1
binding result: no binding (tested: 1 µg of recombinant human CD147-Fc)
